# From US20120225028A1, “COMPOSITIONS AND METHODS FOR MOBILIZATION OF STEM CELLS” (priority 2011, published 2012)
# B1: rhG-CSF: recombinant human granulocyte colony-stimulating factor (Amgen) (protein, UniProt P09919 31-207, looked up)
# Granulocyte …: TPLGPASSLPQSFLLKCLEQVRKIQGDGAALQEKLVSECATYKLCHPEELVLLGHSLGIPWAPLSSCPSQALQLAGCLSQLHSGLFLYQGLLQALEGISPELGPTLDTLQLDVADFATTIWQQMEELGMAPALQPTQGAMPAFASAFQRRAGGVLVASHLQSFLEVSYRVLRHLAQP
# Assays:
# GM-CFC = experiment: Hematopoietic progenitor colony forming assay of WBC from treated mice; assay type: in vivo; details: for Number of GM-CFC (n = 3): median colony number per 200,000 cells plated, methylcellulose culture, 10 days of incubation, triplicate cultures; for Type of colonies formed in cultures of WBC: methylcellulose colony assay
# Experimental: WBC from treated mice were also plated in standard hematopoietic progenitor colony forming assays. Colony formation from cultures of 200,000 cells per 35 mm petri dishes were scored at 10 days of culture.
# The median colony number pre 200,000 cells plated is presented from 3 triplicate cultures containing 1 ml of methycellulose plus rmIL-3, rmGM-CSF, rrSCF and rhG-CSF.
# mesenchymal stem cells = experiment: Mouse model of mobilization: MSC formation in culture of peripheral blood WBC from treated mice; assay type: in vivo; details: for Stromal cell formation in cultures of WBC: SP 10 μg/kg or rhG-CSF 250 ug/kg i.p. for 4 days, PB harvested on fifth day; for Stromal cell formation in cultures of WBC / MSC / adherent stromal cell formation after 5 to 7 days of culture: 35 mm wells; for MSC / adherent stromal cell formation after 5 to 7 days of culture / MSC foci after 10 days of culture: SP 10 μg/kg, i.p. 4 days; for MSC / adherent stromal cell formation after 5 to 7 days of culture: rhG-CSF 250 μg/kg or both; for MSC foci after 10 days of culture: rhG-CSF 250 μg/kg
# Experimental: To evaluate the potential of different mobilization agents, a mouse model of mobilization was used. Groups of mice (n=5) were treated with cytokines or mobilization agents and peripheral blood harvested into heparin containing tubes. The blood was treated with ammonium chloride to lyse the red cells and the white cells plated in 6 well plates treated with gelatin and evaluated for MSC formation at various time points.
# Mice were injected intraperitoneally with 250 ug/kg of rhG-CSF (Amgen Inc, Thousand Oaks, Calif.) or normal saline for 5 days and PB harvested on the fifth day. The white cells were plated in media from Stem Cell Technologies (Vancouver, Canada) for culture of mesenchymal stem cells with murine supplements.
# Mice (groups of 5 mice per treatment arm) were injected intraperitoneally with 10 μg/kg of Substance P (Sigma-Aldrich, St Louis, Mo.) or with 250 ug/kg of rhG-CSF for 4 days and PB harvested on the fifth day. The white cells were plated in media from Stem Cell Technologies (Vancouver, Canada) for culture of mesenchymal stem cells with murine supplements.
# Mice (groups of 5 mice per treatment arm) were injected intraperitoneally with 10 μg/kg of Substance P (Sigma-Aldrich, St Louis, Mo.), with 250 μg/kg of rhG-CSF, or the combination of 10 μg/kg SP plus 250 μg/kg rhG-CSF for 4 days and PB harvested on the fifth day. The white cells were plated in media from Stem Cell Technologies (Vancouver, Canada) for culture of mesenchymal stem cells with murine supplements.
# peripheral blood WBC [1] = experiment: Peripheral blood WBC counts of treated mice; assay type: in vivo; details: 7 day treatment
# Experimental: G-CSF mobilization increases the circulating WBC count in mice and humans with typical counts approximately 25,000 to 30,000 WBC/μl. The effects of the combination of SP+G-CSF on peripheral WBC in treated mice was evaluated.
# The different effects on peripheral WBC count of mobilization agents used were established.
# MSCs or MSC precursors = experiment: Culture of rhG-CSF mobilized peripheral blood from normal donors under MSC conditions; assay type: in vivo; details: normal human donors mobilized with G-CSF, standard MSC culture
# Experimental: Normal unmobilized PB and PB from normal donors mobilized with rhG-CSF was obtained and the potential of the MNCs to generate MSCs was evaluated. When placed in standard culture there was development of adherent cells that appeared like adipocyte cells and endothelial cells (FIG. 1).
# peripheral blood WBC [2] = details: mice and humans, general statement; cited from earlier work
Molecule,Number of GM-CFC (n = 3) (GM-CFC),Type of colonies formed in cultures of WBC (GM-CFC),Stromal cell formation in cultures of WBC (mesenchymal stem cells),MSC / adherent stromal cell formation after 5 to 7 days of culture (mesenchymal stem cells),MSC foci after 10 days of culture (mesenchymal stem cells),Blast like cells on cytospin slides of WBC (mesenchymal stem cells; WBC from SP treated mice),Effect on peripheral blood WBC levels (peripheral blood WBC [1]),MSC formation from mobilized peripheral blood cells (MSCs or MSC precursors),MSC formation from mobilized peripheral blood cells (MSCs or MSC precursors; listed as G-CSF),"Adherent cells in cultures of WBC (mesenchymal stem cells; 250 ug/kg intraperitoneally for 5 days, PB harvested on the fifth day)",Typical circulating WBC count after mobilization (peripheral blood WBC [2])
"Substance P (RPKPQQFFGLM; printed: Arg Pro Lys Pro Gln Gln Phe Phe Gly Leu Met) [SP, Sigma-Aldrich, reference compound]",5,colonies containing both hematopoietic and MSC cells,generated adherent stromal cells after 5 to 7 days with several foci,a few adherent stromal cells,several MSC foci,increase in blast like cells,no significant effect,–,–,–,–
B1,26,Typical hematopoietic colonies,no stromal cell formation evident,one area with MSC cells,one foci,–,–,no evidence of MSC formation,fail to generate mesenchymal stem cells,failed to proliferate and resembled endothelial cells not MSCs,"25,000 to 30,000 WBC/μl"
